B1: TCR2 (TCR, V domains shown)
V domain 1: QKEVEQNSGPLSVPEGAIASLNCTYSDRGSQSFFWYRQYSGKSPELIMSIYSNGDKEDGRFTAQLNKASQYVSLLIRDSQPSDSATYLCAVNIPFSNSGGYQKVTFGTGTKLQVIP
V domain 2: NAGVTQTPKFRVLKTGQSMTLLCAQDMNHEYMYWYRQDPGMGLRLIHYSVGEGTTAKGEVPDGYNVSRLKKQNFLLGLESAAPSQTSVYFCASRHPGQYNQPQHFGDGTRLSILE
B2: TCR3 (TCR, V domains shown)
V domain 1: AQKVTQAQTEISVVEKEDVTLDCVYETRDTTYYLFWYKQPPSGELVFLIRRNSFDEQNEISGRYSWNFQKSTSSFNFTITASQVVDSAVYFCALSVLRMDSSYKLIFGSGTRLLVRP
V domain 2: NAGVTQTPKFRVLKTGQSMTLLCAQDMNHEYMYWYRQDPGMGLRLIHYSVGEGTTAKGEVPDGYNVSRLKKQNFLLGLESAAPSQTSVYFCASSLQGAGQPQHFGDGTRLSILE
B3: TCR1 (TCR, V domains shown)
V domain 1: KQEVTQIPAALSVPEGENLVLNCSFTDSAIYNLQWFRQDPGKGLTSLLLIQSSQREQTSGRLNASLDKSSGRSTLYIAASQPGDSATYLCAAMKTSYDKVIFGPGTSLSVIP
V domain 2: GEEVAQTPKHLVRGEGQKAKLYCAPIKGHSYVFWYQQVLKNEFKFLISFQNENVFDETGMPKERFSAKCLPNSPCSLEIQATKLEDSAVYFCASSQGQGGYGYTFGSGTRLTVVE

Target: MAGE-B2 peptide-MHC (…/HLA-A*02:01) on cells (human)
Test: cell-based or functional assay

Binder | E:T EC50, cytotoxicity against MAGE-B2+ MAGE-A4+ cancer cell lines | E:T EC50, cytotoxicity against MAGE-B2+ MAGE-A4- cancer cell lines | EC90 (peptide concentration), T2/peptide cytotoxicity assay [nM]
B1 | 0.01 E:T ratio | ~0.07 E:T ratio | ≤ 10
B2 |  |  | ≤ 10
B3 |  |  | ≤ 10

Source: patent publication US20240100162A1 (Amgen, published 2024)
